Tests used:
cdMMP-12 mutant D4 [1] = target: T1, cdMMP-12 mutant D4 (Homo sapiens, UniProt P39900, A167E/A173P/A252Q/H206S/I245T/K233R/M156E/N119Q/N126H/R135E/T215V/V161I/Y113D/Y132K); test: Bio-layer interferometry (BLItz) on cdMMP-12 D4; type: binding; conditions: read-out: Affinity on cdMMP-12 D4
T1 construct: hexahistidine (C); made in house; host or cells: E. coli BL21, pET32b (cytoplasmic, soluble fraction)
Method: ELISA and binding kinetics measurement Purified cdMMP-9, cdMMP-12 D4/wt, and cdMMP-14 were biotinylated by using EZ-Link Sulfo-NHS-LC kit (Thermo Fisher). On streptavidin coated ELISA plates, 5 μg/mL biotinylated cdMMPs were immobilized and incubated with two-fold serially diluted purified Fabs. Bound Fabs were detected with anti-Fab-HRP (Sigma-Aldrich), and signals were developed by TMB substrate (Thermo Scientific) and measured using a microplate reader (BioTek). In competitive ELISA, 500 nM Fabs of interest were mixed with 0.01-10 μM GM6001 or 0.8-200 μM nTIMP-2 for 30 min, then transferred to ELISA plates coated with cdMMP-12 D4/wt for incubation 15 min at room temperature. Bound Fabs were detected using anti-Fab-HRP. For bio-layer interferometry (using ForteBio BLItz), biotinylated cdMMP-12 D4/wt was loaded onto streptavidin biosensors. After washing to establish baselines, 50, 100, or 200 nM of Fabs were associated with immobilized cdMMP-12 D4/wt for 200 sec, then dissociated into 50 mM HEPES, 150 mM NaCl pH 7.5 for 120 sec. Averages of measured kon and koff values were determined for KD calculations.

cathepsin B [2] = target: T2, cathepsin B (Homo sapiens, UniProt P07858); test: Binding kinetics by biolayer interferometry, Fabs on cathepsin B; conditions: Fab, read-out: Binding Affinity KD
T2 construct: human cathepsin B (residue 66-339); hexahistidine (C); made in house; host or cells: E. coli (periplasm)
Method: Binding kinetics of produced antibodies towards associated protease targets were analyzed by using biolayer interferometry (ForteBio). For Fabs, biotinylated proteases were immobilized on streptavidin biosensors, and Fab binding to the sensors in absence of protease was monitored as backgrounds. For IgGs, protein A sensors were used and protease bindings without IgG were checked as backgrounds. kon and koff were determined for KD calculations. […] Fab in vitro stability was tested by incubating 1 μM Fab with 1 μM of the respective protease in the assay buffer for 12 hours and the samples were analyzed by SDS-PAGE.

cathepsin B [3] = target: T2, cathepsin B; test: FRET peptide inhibition assay, cathepsin B (M-2595); type: biochemical; conditions: Fab; for Ki: cathepsin B, FRET peptide, read-out: Inhibition Potency KI
Method: (§3) For inhibition tests, 1 μM Fabs were 2-fold serially diluted into protease specific assay buffer and incubated with 1-10 nM proteases for 30 min at room temperature. […] Inhibition percentages at given concentrations were calculated by comparing the initial reaction rates in the presence or absence of inhibitor. IC50 was determined as the concentration that achieved 50% inhibition, and KI values were calculated using KI=IC50/(S/Km+1). Vmax and Km at various Fab concentrations were measured to determine the inhibition type. FRET inhibition assays were also used for selectivity tests of isolated Fabs with the relevant proteases.

cathepsin K = target: T3, cathepsin K (Homo sapiens, UniProt P43235); test: FRET inhibition selectivity test, cathepsin K; type: biochemical; conditions: same Fab concentrations as for cathepsin B
T3 construct: hexahistidine (C); made in house; host or cells: E. coli (periplasm)
T3 sequence (P43235 115-329): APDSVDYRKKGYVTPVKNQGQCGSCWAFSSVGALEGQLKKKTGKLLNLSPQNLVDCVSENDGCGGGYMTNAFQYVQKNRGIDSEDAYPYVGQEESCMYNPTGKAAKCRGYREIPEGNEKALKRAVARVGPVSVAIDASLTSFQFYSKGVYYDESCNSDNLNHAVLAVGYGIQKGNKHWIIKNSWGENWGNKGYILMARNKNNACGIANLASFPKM
Method: as §3

cdMMP-12 mutant D4 [4] = target: T1, cdMMP-12 mutant D4; test: FRET peptide inhibition assay, cdMMP-12 D4; type: biochemical; conditions: cdMMP-12 D4, FRET peptide, 31-500 nM Fab
Method: (§1) FRET peptide inhibition assays In 96-well assay plates (Corning), 60/250/350/10/10/30 nM of (cd)MMP-1/-7/-9/-12 D4/-12 wt/-14 were preincubated with 1 nM-1 μM purified Fabs for 30 min at room temperature then 1 μM substrate M-2350 (Bachem) was added. Generated fluorescent signals (λEx=328 nm, λEm=393 nm) were monitored at 37° C. to measure the initial velocities. To calculate inhibition constants (KIs), data were fit with the equations for slow tight-binding inhibitors. The inhibition type of the Fabs was determined using the initial velocities of cdMMP-12 D4 as a function of substrate concentration (250-2000 nM) at various Fab concentrations (31-500 nM). The values of Vmax and Km were derived from linearization in accordance with the Lineweaver-Burk equation.

cdMMP-12 wt [5] = target: T4, cdMMP-12 wt (Homo sapiens, UniProt P39900); test: FRET peptide inhibition assay, cdMMP-12 wt; type: biochemical; conditions: toward cdMMP-12 wild type
T4 construct: hexahistidine (C); made in house; host or cells: E. coli BL21 (pET32b, cytoplasmic)
Method: as §1

cdMMP-12 wt [6] = target: T4, cdMMP-12 wt; test: Elastin-FITC hydrolysis inhibition, cdMMP-12 wt; type: biochemical; conditions: 7 nM wt cdMMP-12, 37° C., 12 h
Method: Inhibition tests with macromolecular substrates 10 μg/mL FITC-conjugated elastin (AnaSpec) was incubated with 7 nM cdMMP-12 D4/wt and 2-2000 nM purified Fab in 50 mM Tris-HCl, 150 mM NaCl, 5 mM CaCl2), 100 μM ZnCl2 pH 7.5. Generated fluorescent signals were measured at 12 h with λEx of 490 nm and λEm of 520 nm. For inhibition assays on fibronectin, 200 nM fibronectin (Corning) was incubated with 200-350 nM cdMMP-12 wt and 2 μM GM6001 or 0.1-6 μM Fabs in 50 mM HEPES, 150 mM NaCl pH 7.5 at 37° C. for 2-4 h. The samples were separated on 5% non-reducing SDS-PAGE and analyzed by western blotting with anti-Fibronectin antibody (Abcam) and chemiluminescent substrate (Thermo Scientific). For inhibition assays on modified TEM-1 carrying cleavable sequence ([…] (SEQ ID NO:134)) and a N-terminal HA tag, 250 nM modified TEM-1 was incubated with 700 nM cdMMP-12 wt and 10 μM Fabs in 50 mM HEPES, 150 mM NaCl pH 7.5 at 37° C. for 4 h. The samples were separated on 12% non-reducing SDS-PAGE, and the modified TEM-1 was visualized by western blotting using anti-HA antibody (Invitrogen) and chemiluminescent substrate. Assays without cdMMP-12s or Fabs were performed as controls.

cdMMP-12 wt [7] = target: T4, cdMMP-12 wt; test: Fibronectin proteolysis inhibition, cdMMP-12 wt (western blot); type: biochemical; conditions: 6 μM Fab; 350 nM wt cdMMP-12, 200 nM fibronectin, 37° C.
Method: Inhibition tests with macromolecular substrates 10 μg/mL FITC-conjugated elastin (AnaSpec) was incubated with 7 nM cdMMP-12 D4/wt and 2-2000 nM purified Fab in 50 mM Tris-HCl, 150 mM NaCl, 5 mM CaCl2), 100 μM ZnCl2 pH 7.5. Generated fluorescent signals were measured at 12 h with λEx of 490 nm and λEm of 520 nm. […] The samples were separated on 5% non-reducing SDS-PAGE and analyzed by western blotting with anti-Fibronectin antibody (Abcam) and chemiluminescent substrate (Thermo Scientific). […] Assays without cdMMP-12s or Fabs were performed as controls.

MMP-1 = target: T5, MMP-1 (Homo sapiens, UniProt P03956); test: FRET peptide inhibition assay, MMP-1; type: biochemical
T5 construct: purchased AnaSpec
T5 sequence (P03956 100-469): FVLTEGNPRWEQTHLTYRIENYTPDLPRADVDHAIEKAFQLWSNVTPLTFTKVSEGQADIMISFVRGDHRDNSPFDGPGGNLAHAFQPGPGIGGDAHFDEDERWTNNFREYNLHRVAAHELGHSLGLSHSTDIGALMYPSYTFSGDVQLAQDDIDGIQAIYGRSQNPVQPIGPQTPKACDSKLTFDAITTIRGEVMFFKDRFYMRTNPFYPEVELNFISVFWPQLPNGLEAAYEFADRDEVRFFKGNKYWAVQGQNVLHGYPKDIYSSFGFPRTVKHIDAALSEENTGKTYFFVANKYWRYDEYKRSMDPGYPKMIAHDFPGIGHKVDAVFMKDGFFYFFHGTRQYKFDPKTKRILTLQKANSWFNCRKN
Method: as §1

MMP-7 = target: T6, MMP-7 (Homo sapiens, UniProt P09237); test: FRET peptide inhibition assay, MMP-7; type: biochemical
T6 construct: purchased AnaSpec
T6 sequence (P09237 95-267): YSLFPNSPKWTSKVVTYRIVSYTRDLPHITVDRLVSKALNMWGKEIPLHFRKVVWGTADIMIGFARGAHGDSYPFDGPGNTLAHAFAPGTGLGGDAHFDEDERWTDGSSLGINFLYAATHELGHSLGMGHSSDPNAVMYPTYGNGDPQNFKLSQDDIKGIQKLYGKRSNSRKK
Method: as §1

cdMMP-9 [8] = test: FRET peptide inhibition assay, cdMMP-9 (Example 2); type: biochemical; conditions: FRET peptide; read-out: K1 toward cdMMP-9
Method: as §1

cdMMP-9 [9] = test: Bio-layer interferometry on cdMMP-9; type: binding; conditions: read-out: KD toward cdMMP-9
cdMMP-12 mutant D4 [10] = target: T1, cdMMP-12 mutant D4; test: Proteolytic stability of Fabs with cdMMP-12 D4; type: physicochemical; conditions: 2 μM Fab, 2 μM cdMMP-12 D4, 4 h, 37° C.
Method: (§2) Proteolytic stability tests 2 μM purified Fabs were incubated with 2 μM cdMMP-12 wt/D4 in 50 mM HEPES, 150 mM NaCl pH 7.5 at 37° C. for 4 h. Samples were analyzed by using 12% non-reducing SDS-PAGE and stained with Coomassie blue. Densitometric interpretation was conducted using a ChemiDoc imager (Bio-Rad).

cdMMP-12 wt [11] = target: T4, cdMMP-12 wt; test: Proteolytic stability of Fabs with cdMMP-12 wt; type: physicochemical; conditions: 2 μM Fab, 2 μM cdMMP-12 wt, 4 h, 37° C.
Method: as §2

cdMMP-14 = cdMMP-14 (Homo sapiens, UniProt P50281); test: Bio-layer interferometry on cdMMP-14; type: binding; parameters: human MMP-14 (residue 114-320); hexahistidine (C); made in house; host or cells: E. coli periplasm; conditions: read-out: KD toward cdMMP-14

T4 sequence (P39900 106-263): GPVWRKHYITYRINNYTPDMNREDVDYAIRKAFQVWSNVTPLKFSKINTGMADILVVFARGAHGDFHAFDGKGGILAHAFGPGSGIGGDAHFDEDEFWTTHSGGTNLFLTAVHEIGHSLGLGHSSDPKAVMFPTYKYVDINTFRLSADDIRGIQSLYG
T1 sequence (P39900 106-263 Y113D/N119Q/N126H/Y132K/R135E/M156E/V161I/A167E/A173P/H206S/T215V/K233R/I245T/A252Q): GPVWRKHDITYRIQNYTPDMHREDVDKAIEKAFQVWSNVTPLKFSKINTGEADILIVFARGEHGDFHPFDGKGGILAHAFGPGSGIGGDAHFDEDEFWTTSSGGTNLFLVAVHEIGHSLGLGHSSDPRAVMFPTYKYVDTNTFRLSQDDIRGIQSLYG
Chain of cdMMP-9 (P14780 with tags, fused parts or gaps DEL216-390 limits assumed): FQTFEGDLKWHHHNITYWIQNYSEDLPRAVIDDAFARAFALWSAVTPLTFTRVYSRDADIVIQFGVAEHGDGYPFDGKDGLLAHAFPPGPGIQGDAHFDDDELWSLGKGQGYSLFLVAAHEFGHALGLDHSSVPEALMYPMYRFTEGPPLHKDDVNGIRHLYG

## nTIMP-1: N-terminal domain of tissue inhibitor of metalloproteinases 1, endogenous inhibitor of MMPs
cdMMP-12 mutant D4 [1]
  Kd: 500 nM

## nTIMP-2: N-terminal domain of tissue inhibitor of metalloproteinases 2, endogenous inhibitor of MMPs
cdMMP-12 mutant D4 [1]
  Kd: 290 nM

B1: Fab CBA2: anti-cathepsin B antibody clone; VL SEQ ID NO:108, VH SEQ ID NO:81, CDR-H3 SEQ ID NO:84 (antibody, V domains shown)
VH: EVQLVESGGGLVQPGGSLRLSCAASGFNIYYYSIHWVRQAPGKGLEWVAYIYSYYGSTYYADSVKGRFTISADTSKNTAYLQMNSLRAEDTAVYYCARYGYPGGYHFWGWWSSPYAFDYWGQGTLVTVSSAS
VL: DIQMTQSPSSLSASVGDRVTITCRASQSVSSAVAWYQQKPGKAPKLLIYSASSLYSGVPSRFSGSRSGTDFTLTISSLQPEDFATYYCQQWSSSWGYLITFGQGTKVEIKR
Cathepsin B [2]
  Kd: 190 nM
Cathepsin B [3]
  Inhibition of cathepsin B (in words): inhibited cathepsin B completely
  Ki: 130 nM
Cathepsin K
  Inhibition of cathepsin K (selectivity): but not cathepsin K

B2: Fab LH11: anti-MMP-12 antibody clone; VL SEQ ID NO:124, VH SEQ ID NO:126, CDR-H3 SEQ ID NO:129 (antibody, V domains shown)
VH: EVQLVESGGGLVQPGGSLRLSCAASGFNLSYYSMHWVRQAPGKGLEWVAYIYPYYGSTYYADSVKGRFTISADTSKNTAYLQMNSLRAEDTAVYYCARFLLSIGKLFVGDGSILHVWLYGMDYWGQGTLVTVSSAS
VL: DIQMTQSPSSLSASVGDRVTITCRASQSVSSAVAWYQQKPGKAPKLLIYSASSLYSGVPSRFSGSRSGTDFTLTISSLQPEDFATYYCQQAYYGYLFTFGQGTKVEIKR
cdMMP-12 mutant D4 [4]
  Type of inhibition (Lineweaver-Burk): substrate competitive manner
cdMMP-12 wt [5]
  Inhibition FRET peptide: non-
cdMMP-12 wt [6]; 2 nM Fab
  Inhibition of elastin-FITC hydrolysis: 0%
cdMMP-12 wt [6]; 16 nM Fab
  Inhibition of elastin-FITC hydrolysis: 49%
cdMMP-12 wt [6]; 63 nM Fab
  Inhibition of elastin-FITC hydrolysis: 62%
cdMMP-12 wt [6]; 500 nM Fab
  Inhibition of elastin-FITC hydrolysis: 86%
cdMMP-12 wt [7]
  Fibronectin remaining after cdMMP-12 wt hydrolysis: significant amounts of fibronectin remained
MMP-1
  Inhibition of MMP-1 (selectivity): did not inhibit and non-
MMP-7
  Inhibition of MMP-7 (selectivity): did not inhibit and non-
cdMMP-9 [8]
  Ki: 6200 nM
cdMMP-9 [9]
  Kd: 740 nM
cdMMP-12 mutant D4 [10]
  Degradation of Fab by cdMMP-12 D4: no significant degradation
cdMMP-12 wt [11]
  Fab remained intact after exposure to cdMMP-12 wt: 67%
cdMMP-14
  Kd: ~700 nM

B3: Fab CBA1: anti-cathepsin B antibody clone; VL SEQ ID NO:110, VH SEQ ID NO:85, CDR-H3 SEQ ID NO:87 (antibody, V domains shown)
VH: EVQLVESGGGLVQPGGSLRLSCAASGFNLYSSYIHWVRQAPGKGLEWVASIYPYSSSTSYADSVKGRFTISADTSKNTAYLQMNSLRAEDTAVYYCARGGGSWSAMDYWGQGTLVTVSSAS
VL: DIQMTQSPSSLSASVGDRVTITCRASQSVSSAVAWYQQKPGKAPKLLIYSASSLYSGVPSRFSGSRSGTDFTLTISSLQPEDFATYYCQQHYSLITFGQGTKVEIKR
Cathepsin B [2]
  Kd: 290 nM
Cathepsin B [3]
  Inhibition of cathepsin B (in words): inhibited cathepsin B completely
  Ki: 200 nM
Cathepsin K
  Inhibition of cathepsin K (selectivity): but not cathepsin K
